Results as given in publication PMC4973710.

Target: CPR-DA: human cytochrome P450 reductase doubly labelled with Cy5 (donor) and Alexa 750 (acceptor) (human) (UniProt P16435)
Chain of UniProt P16435 (P16435 61-677): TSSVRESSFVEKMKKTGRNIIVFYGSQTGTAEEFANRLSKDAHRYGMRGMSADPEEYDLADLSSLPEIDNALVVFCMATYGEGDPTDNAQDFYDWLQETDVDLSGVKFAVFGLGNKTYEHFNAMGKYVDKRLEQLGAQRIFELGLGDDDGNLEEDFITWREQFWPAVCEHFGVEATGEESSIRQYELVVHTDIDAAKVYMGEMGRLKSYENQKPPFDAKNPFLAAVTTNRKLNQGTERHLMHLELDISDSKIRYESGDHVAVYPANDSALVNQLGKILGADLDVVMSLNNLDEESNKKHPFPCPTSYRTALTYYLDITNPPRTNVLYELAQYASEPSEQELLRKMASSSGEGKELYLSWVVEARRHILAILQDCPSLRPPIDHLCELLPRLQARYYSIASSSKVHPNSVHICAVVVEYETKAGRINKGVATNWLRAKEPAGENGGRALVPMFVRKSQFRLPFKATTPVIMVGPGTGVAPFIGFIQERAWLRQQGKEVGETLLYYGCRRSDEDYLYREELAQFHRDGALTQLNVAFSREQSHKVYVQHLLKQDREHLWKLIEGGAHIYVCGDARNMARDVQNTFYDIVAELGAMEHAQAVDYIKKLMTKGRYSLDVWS

bovine heart cytochrome c (from UniProt P62894 1-105) (natural protein)
second-order rate constant of ferric cyt c reduction by equimolar NADPH-reduced CPR-DA, first kinetic phase (UV-Vis double-mixing stopped-flow): 1.01e+06 M⁻¹ s⁻¹ | second-order rate constant of ferric cyt c reduction by equimolar NADPH-reduced CPR-DA, second kinetic phase (UV-Vis double-mixing stopped-flow): 340000 M⁻¹ s⁻¹
